The values that follow come from patent publication US20260217800A1.

The test addresses full length gp41 HIV protein (Abcam) (human immunodeficiency virus-1 (HIV-1)). Put plainly: titration ELISA, wells coated with 1 µg/mL antigen, 2F5 in 4-fold dilutions from 30 µg/mL. (In general: An ELISA detects its analyte on a solid surface through an enzyme-linked reagent.)

For “2F5 broadly neutralizing human monoclonal antibody”, the EC50 (read off the curve) (usually the concentration at which the effect is half-maximal) came out at 0.1 µg/mL.
